Results on two molecules are retold here after PMC7251212, “Molecular Insight into TdfH-Mediated Zinc Piracy from Human Calprotectin by Neisseria gonorrhoeae” (mBio, 2020).

The target of experiment [1] is T1, recombinant TdfH (Neisseria gonorrhoeae TonB-dependent transporter, NGO0952) (Neisseria gonorrhoeae, UniProt A0ACH0F8A9 1-922).
T1 construct: TdfH, Neisseria gonorrhoeae, locus NGO0952; full-length tdfH gene, codon-optimised for E. coli; The tag of pHIS2 is not described: the N-terminal 10x His tag and TEV site are told of the modified pET20b vector, which was not the source of the protein used; also called recombinantly produced TdfH; purified TdfH; not shown: His tag (from the Ni-NTA purification)
T1 sequence: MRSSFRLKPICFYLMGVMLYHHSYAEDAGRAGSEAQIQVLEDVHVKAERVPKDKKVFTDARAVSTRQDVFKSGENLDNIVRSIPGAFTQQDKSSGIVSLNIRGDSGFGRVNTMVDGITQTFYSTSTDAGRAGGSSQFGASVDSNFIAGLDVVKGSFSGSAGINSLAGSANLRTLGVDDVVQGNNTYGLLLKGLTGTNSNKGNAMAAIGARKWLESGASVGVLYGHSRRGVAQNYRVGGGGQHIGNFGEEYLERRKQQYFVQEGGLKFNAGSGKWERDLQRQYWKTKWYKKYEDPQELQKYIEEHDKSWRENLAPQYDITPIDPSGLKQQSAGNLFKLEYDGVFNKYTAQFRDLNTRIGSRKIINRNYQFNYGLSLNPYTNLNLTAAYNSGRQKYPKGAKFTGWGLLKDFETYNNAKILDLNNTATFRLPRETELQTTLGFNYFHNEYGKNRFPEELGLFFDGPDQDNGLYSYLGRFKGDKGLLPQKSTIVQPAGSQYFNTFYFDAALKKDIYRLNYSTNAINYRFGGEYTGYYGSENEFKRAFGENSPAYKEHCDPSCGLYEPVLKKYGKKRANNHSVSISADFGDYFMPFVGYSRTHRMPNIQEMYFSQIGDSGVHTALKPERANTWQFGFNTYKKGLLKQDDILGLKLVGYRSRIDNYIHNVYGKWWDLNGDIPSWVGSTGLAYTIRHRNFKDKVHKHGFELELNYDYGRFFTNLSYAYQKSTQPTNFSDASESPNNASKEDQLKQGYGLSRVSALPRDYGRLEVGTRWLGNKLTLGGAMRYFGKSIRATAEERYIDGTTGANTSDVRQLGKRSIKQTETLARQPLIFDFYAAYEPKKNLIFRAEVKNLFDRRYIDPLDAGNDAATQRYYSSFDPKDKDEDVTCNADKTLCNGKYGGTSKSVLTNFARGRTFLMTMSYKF
As to the kind of experiment: ITC; Nano ITC, 25°C, 1x PBS with 0.05% DDM; TdfH (300 μl, 20 μM) in the cell, CP sample (200 μM) in 20 injections of 2.5 μl; fitted with NanoAnalyze to a two-state (multisite) model, TKO to a single-site model. Particulars: both partners purified. Background: ITC needs no label: the signal is the heat of the interaction.

Another experiment deals with T2, TdfH (Neisseria gonorrhoeae, UniProt A0ACH0F8A9 1-922).
T2 construct: TdfH, TonB-dependent transporter of Neisseria gonorrhoeae, locus NGO0952; full-length tdfH gene, codon optimised for E. coli; In 0.05% DDM; also called recombinant TdfH; NGO0952
As to the kind of experiment: ITC; CP sample (200 uM) injected into TdfH (300 ul at 20 uM) in the cell, 20 injections of 2.5 ul every 300 s, 25 C, 1x PBS with 0.05% DDM; fitted with NanoAnalyze (multi-site model; independent model for TKO). The settings on record: both partners purified.

B1: total knockout human calprotectin (both Zn binding sites mutated) (complex)
chain 1: MLTELEKALNSIIDVYNKYSLIKGNFNAVYRDDLKKLLETECPQYIRKKGADVWFKELDINTDGAVNFQEFLILVIKMGVAANKKSNEESHKE
chain 2: MTCKMSQLERNIETIINTFNQYSVKLGHPSTLNQGEFKELVRKDLQNFLKKENKNEKVIEHIMEDLDTNADKQLSFEEFIMLMARLTWASNEKMNEGDEGPGHHHKPGLGEGTP
modifications: Positions are not printed here. They follow the cited calprotectin site-knockout constructs and fit the printed counts (4 His-Asn in site 1; 3 His-Asn plus Asp-Ser in site 2). Cys kept as wild type …
In general, Kd refers to the equilibrium constant for the complex coming apart. On to B1, for which the Kd in experiment [1] came to 13 µM.

B2: total knockout hCP (complex)
chain 1: MLTELEKALNSIIDVYNKYSLIKGNFNAVYRDDLKKLLETECPQYIRKKGADVWFKELDINTDGAVNFQEFLILVIKMGVAANKKSNEESHKE
chain 2: MTCKMSQLERNIETIINTFNQYSVKLGHPSTLNQGEFKELVRKDLQNFLKKENKNEKVIEHIMEDLDTNADKQLSFEEFIMLMARLTWASNEKMNEGDEGPGHHHKPGLGEGTP
modifications: Same construct as m7. Positions come from the cited constructs and are not printed here.
For orientation: stoichiometry N means the number of molecules, sites or subunits per partner or assembly. For the molecule B2, the “stoichiometry N” value in the experiment with TdfH was determined as 0.67 ± 0.12.
